In the data set the test system is Escherichia coli TOP10. The experiment in a line: shrunken log2 fold change of peptide-encoding DNA abundance (4.5 h post-induction vs induction); higher = less antimicrobial activity (less host growth inhibition). To be noted: time post-induction: 4.5 h; library: site-saturation at positions 5, 18, 19, 20.
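Note: peptides expressed intracellularly from a pBAD plasmid library in pooled LB shake-flask culture, induced with 0.3% L-arabinose, DNA abundance read by NGS, three biological replicates, DESeq2 with apeglm shrinkage.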

Consider RRIRGRPPRLPRPRPRPETNPRP, for which the “shrunken log2 fold change” value was 1.95. As to RRIRKRPPRLPRPRPRPLCIPRP, the “shrunken log2 fold change” value was -0.0466.

With RRIRIRPPRLPRPRPRPWCLPRP, the “shrunken log2 fold change” value was -1.11.

As for RRIRARPPRLPRPRPRPFHQPRP, the “shrunken log2 fold change” value was -0.211. Consider RRIRMRPPRLPRPRPRPYDIPRP, for which the “shrunken log2 fold change” value was found to be 0.0444.

RRIRCRPPRLPRPRPRPQDQPRP: the “shrunken log2 fold change” value is -0.101. Turning to RRIRDRPPRLPRPRPRPIELPRP, the “shrunken log2 fold change” value came out at 0.0698. On to RRIRFRPPRLPRPRPRPLTQPRP, for which the “shrunken log2 fold change” value was -0.155. In the case of RRIRVRPPRLPRPRPRPNNNPRP, the “shrunken log2 fold change” value was -0.661. Consider RRIRKRPPRLPRPRPRPWSAPRP, for which the “shrunken log2 fold change” value is 0.0935. For RRIRRRPPRLPRPRPRPKRPPRP, the “shrunken log2 fold change” value turned out to be 0.656. As to RRIRLRPPRLPRPRPRPMNCPRP, the “shrunken log2 fold change” value is -0.507. With RRIRYRPPRLPRPRPRPKKQPRP, the “shrunken log2 fold change” value is -0.00353. Consider RRIRDRPPRLPRPRPRPRCFPRP, for which the “shrunken log2 fold change” value was determined as 1.66. RRIRFRPPRLPRPRPRPLHTPRP: the “shrunken log2 fold change” value was -0.262.

For RRIRYRPPRLPRPRPRPINWPRP, the “shrunken log2 fold change” value is -0.446. As to RRIRARPPRLPRPRPRPCWCPRP, the “shrunken log2 fold change” value turned out to be 0.721. Take RRIRQRPPRLPRPRPRPMLEPRP: the “shrunken log2 fold change” value worked out at 0.0533. Take RRIRLRPPRLPRPRPRPVEMPRP: the “shrunken log2 fold change” value is -0.0829. With RRIRDRPPRLPRPRPRPGAWPRP the figure was 4.01; with RRIRYRPPRLPRPRPRPLHIPRP, -0.271; with RRIRCRPPRLPRPRPRPHRHPRP, -0.275.

With RRIRIRPPRLPRPRPRPFVPPRP, the “shrunken log2 fold change” value is -0.722.

With RRIRNRPPRLPRPRPRPCMFPRP, the “shrunken log2 fold change” value was -0.68. Regarding RRIRWRPPRLPRPRPRPKQVPRP, the “shrunken log2 fold change” value is 0.285. With RRIRGRPPRLPRPRPRPAMDPRP the figure was 0.491; with RRIRNRPPRLPRPRPRPKLIPRP, -0.0332.

Consider RRIRYRPPRLPRPRPRPWGMPRP, for which the “shrunken log2 fold change” value is -0.364. The result for RRIRTRPPRLPRPRPRPMWDPRP reads 0.00971; that for RRIRQRPPRLPRPRPRPLYAPRP, -0.399.

Consider RRIRCRPPRLPRPRPRPPRSPRP, for which the “shrunken log2 fold change” value came out at 0.993. RRIRGRPPRLPRPRPRPPWGPRP: the “shrunken log2 fold change” value was found to be 0.651. For RRIRFRPPRLPRPRPRPLGKPRP, the “shrunken log2 fold change” value was -0.17.

Consider RRIRMRPPRLPRPRPRPEYWPRP, for which the “shrunken log2 fold change” value was 0.339.

On to RRIRGRPPRLPRPRPRPGLDPRP, for which the “shrunken log2 fold change” value turned out to be 1.24. Regarding RRIRHRPPRLPRPRPRPWDKPRP, the “shrunken log2 fold change” value is -0.000233. On to RRIRCRPPRLPRPRPRPLFLPRP, for which the “shrunken log2 fold change” value was -0.601. As to RRIRRRPPRLPRPRPRPWQNPRP, the “shrunken log2 fold change” value was -0.111. As to RRIRKRPPRLPRPRPRPHGSPRP, the “shrunken log2 fold change” value is -0.0695. RRIRYRPPRLPRPRPRPPLPPRP: the “shrunken log2 fold change” value is 0.184. With RRIRMRPPRLPRPRPRPWYDPRP the figure was 0.0249. For RRIRERPPRLPRPRPRPCMVPRP, the “shrunken log2 fold change” value was -1.08. The result for RRIRQRPPRLPRPRPRPAQPPRP reads 0.187; that for RRIRYRPPRLPRPRPRPPRNPRP, 0.142. For the sequence RRIRERPPRLPRPRPRPVYYPRP, the “shrunken log2 fold change” value stood at 0.0224. As for RRIRERPPRLPRPRPRPTIDPRP, the “shrunken log2 fold change” value is -0.227. With RRIRSRPPRLPRPRPRPKVKPRP, the “shrunken log2 fold change” value was 0.0666. The result for RRIRNRPPRLPRPRPRPVYIPRP reads -0.434; that for RRIRERPPRLPRPRPRPTSVPRP, -0.028.

Turning to RRIRIRPPRLPRPRPRPNMTPRP, the “shrunken log2 fold change” value is -0.804.

For RRIRVRPPRLPRPRPRPTPDPRP, the “shrunken log2 fold change” value is 0.182. With RRIRQRPPRLPRPRPRPDKLPRP, the “shrunken log2 fold change” value is -0.522. With RRIRNRPPRLPRPRPRPDLTPRP the figure was -0.112. As for RRIRPRPPRLPRPRPRPHEVPRP, the “shrunken log2 fold change” value is -0.0664. For the sequence RRIRRRPPRLPRPRPRPMCMPRP, the “shrunken log2 fold change” value was -0.0115.

RRIRNRPPRLPRPRPRPQEWPRP: the “shrunken log2 fold change” value is -0.00211. The result for RRIRKRPPRLPRPRPRPQGNPRP reads 0.0216. The result for RRIRARPPRLPRPRPRPLFHPRP reads -0.249; that for RRIRRRPPRLPRPRPRPDMNPRP, -0.00608. Regarding RRIRSRPPRLPRPRPRPLVSPRP, the “shrunken log2 fold change” value came out at 0.208. With RRIRKRPPRLPRPRPRPYKFPRP the figure was -0.0374; with RRIRKRPPRLPRPRPRPGFGPRP, 1.35; with RRIRARPPRLPRPRPRPIKRPRP, 0.0415. With RRIRLRPPRLPRPRPRPCLYPRP, the “shrunken log2 fold change” value was -0.247.

Take RRIRQRPPRLPRPRPRPHTDPRP: the “shrunken log2 fold change” value was -0.228. As for RRIRDRPPRLPRPRPRPRLRPRP, the “shrunken log2 fold change” value amounted to 0.122. With RRIRRRPPRLPRPRPRPIEHPRP, the “shrunken log2 fold change” value is -0.00775. Consider RRIRSRPPRLPRPRPRPSAEPRP, for which the “shrunken log2 fold change” value was 0.567.

With RRIRYRPPRLPRPRPRPGDLPRP, the “shrunken log2 fold change” value stood at 0.0641. As to RRIRKRPPRLPRPRPRPVMDPRP, the “shrunken log2 fold change” value is -0.0489. The result for RRIRERPPRLPRPRPRPMDAPRP reads -0.0623. On to RRIRTRPPRLPRPRPRPKCQPRP, for which the “shrunken log2 fold change” value is -0.144. Turning to RRIRWRPPRLPRPRPRPMICPRP, the “shrunken log2 fold change” value is -0.00725. With RRIRARPPRLPRPRPRPKEEPRP, the “shrunken log2 fold change” value was -0.0728. Regarding RRIRTRPPRLPRPRPRPRYGPRP, the “shrunken log2 fold change” value is -0.284. Take RRIRARPPRLPRPRPRPRSEPRP: the “shrunken log2 fold change” value stood at 0.42. With RRIRFRPPRLPRPRPRPYFQPRP, the “shrunken log2 fold change” value is -1.44. In the case of RRIRYRPPRLPRPRPRPLQIPRP, the “shrunken log2 fold change” value was -0.51. Turning to RRIRFRPPRLPRPRPRPPFSPRP, the “shrunken log2 fold change” value was -0.0847.

Consider RRIRNRPPRLPRPRPRPINPPRP, for which the “shrunken log2 fold change” value is -0.796. Take RRIRLRPPRLPRPRPRPHTKPRP: the “shrunken log2 fold change” value is -0.422. The result for RRIRGRPPRLPRPRPRPPVCPRP reads 0.213; that for RRIRHRPPRLPRPRPRPTKKPRP, -0.0507; that for RRIRSRPPRLPRPRPRPDKDPRP, -0.102. As to RRIRGRPPRLPRPRPRPRQMPRP, the “shrunken log2 fold change” value was -0.0496. In the case of RRIRFRPPRLPRPRPRPMCWPRP, the “shrunken log2 fold change” value was -0.189. Turning to RRIRQRPPRLPRPRPRPHLVPRP, the “shrunken log2 fold change” value came to 0.00244.

For RRIRCRPPRLPRPRPRPCFKPRP, the “shrunken log2 fold change” value is -0.603. In the case of RRIRYRPPRLPRPRPRPQSAPRP, the “shrunken log2 fold change” value is -0.21. Regarding RRIRWRPPRLPRPRPRPNTGPRP, the “shrunken log2 fold change” value is -0.096.

RRIRGRPPRLPRPRPRPWLYPRP: the “shrunken log2 fold change” value is 0.285. With RRIRKRPPRLPRPRPRPCGIPRP the figure was 0.0772; with RRIRNRPPRLPRPRPRPPACPRP, 0.301; with RRIRPRPPRLPRPRPRPFFFPRP, 0.279. Take RRIRKRPPRLPRPRPRPMQHPRP: the “shrunken log2 fold change” value amounted to 0.589. As to RRIRYRPPRLPRPRPRPKIFPRP, the “shrunken log2 fold change” value is -0.297. The result for RRIRFRPPRLPRPRPRPGSDPRP reads -0.111; that for RRIRNRPPRLPRPRPRPFRYPRP, -0.591; that for RRIRNRPPRLPRPRPRPNWVPRP, 0.0876. The result for RRIRGRPPRLPRPRPRPGASPRP reads 0.934; that for RRIRARPPRLPRPRPRPMWAPRP, 0.557; that for RRIRTRPPRLPRPRPRPRPAPRP, 0.555. Regarding RRIRFRPPRLPRPRPRPYQFPRP, the “shrunken log2 fold change” value stood at 0.0166. As for RRIRTRPPRLPRPRPRPIAGPRP, the “shrunken log2 fold change” value is -0.16. Turning to RRIRCRPPRLPRPRPRPWIIPRP, the “shrunken log2 fold change” value is -0.577. As to RRIRERPPRLPRPRPRPMIFPRP, the “shrunken log2 fold change” value is -0.223. As to RRIRERPPRLPRPRPRPCMPPRP, the “shrunken log2 fold change” value is 0.0888.

On to RRIRDRPPRLPRPRPRPRVFPRP, for which the “shrunken log2 fold change” value was 0.485. The result for RRIRDRPPRLPRPRPRPIYTPRP reads -0.105; that for RRIRSRPPRLPRPRPRPDYIPRP, -0.443. With RRIRFRPPRLPRPRPRPQCLPRP, the “shrunken log2 fold change” value is -0.0767.

With RRIRKRPPRLPRPRPRPVFMPRP, the “shrunken log2 fold change” value was found to be 0.138. Consider RRIRIRPPRLPRPRPRPENSPRP, for which the “shrunken log2 fold change” value amounted to 0.0169.

For RRIRWRPPRLPRPRPRPIQVPRP, the “shrunken log2 fold change” value is -0.0332. With RRIRDRPPRLPRPRPRPFVFPRP the figure was 0.175; with RRIRLRPPRLPRPRPRPRWTPRP, 0.404; with RRIRCRPPRLPRPRPRPSQSPRP, -0.221.

As to RRIRQRPPRLPRPRPRPLRRPRP, the “shrunken log2 fold change” value amounted to 2.24. As for RRIRPRPPRLPRPRPRPWSGPRP, the “shrunken log2 fold change” value amounted to 0.000793.

On to RRIRARPPRLPRPRPRPCMTPRP, for which the “shrunken log2 fold change” value was found to be 0.591. With RRIRVRPPRLPRPRPRPKMLPRP the figure was -0.13; with RRIRFRPPRLPRPRPRPRIGPRP, 0.543; with RRIRARPPRLPRPRPRPYIMPRP, -0.675. For the sequence RRIRERPPRLPRPRPRPHDKPRP, the “shrunken log2 fold change” value was -0.784. With RRIRFRPPRLPRPRPRPMAKPRP, the “shrunken log2 fold change” value is -0.0311.

These data come from the supplement of paper PMC9112550, “Optimization of the antimicrobial peptide Bac7 by deep mutational scanning” (BMC Biology, 2022).
